Data on one protein can be found in PMC2935283, “Molecular recognition between Escherichia coli enolase and ribonuclease E” (Acta Crystallographica Section D: Biological Crystallography, 2010).

This series deals with the molecule itself. The series can be described thus: native MS; enolase mixed with the microdomain in a 1:1.5 molar ratio, room temperature, 20 min; nanoflow ESI, tandem nondissociating QTOF-MS/MS.

B1: Escherichia coli enolase (enzyme, E. coli)
chain: MSKIVKIIGREIIDSRGNPTVEAEVHLEGGFVGMAAAPSGASTGSREALELRDGDKSRFLGKGVTKAVAAVNGPIAQALIGKDAKDQAGIDKIMIDLDGTENKSKFGANAILAVSLANAKAAAAAKGMPLYEHIAELNGTPGKYSMPVPMMNIINGGEHADNNVDIQEFMIQPVGAKTVKEAIRMGSEVFHHLAKVLKAKGMNTAVGDEGGYAPNLGSNAEALAVIAEAVKAAGYELGKDITLAMDCAASEFYKDGKYVLAGEGNKAFTSEEFTHFLEELTKQYPIVSIEDGLDESDWDGFAYQTKVLGDKIQLVGDDLFVTNTKILKEGIEKGIANSILIKFNQIGSLTETLAAIKMAKDAGYTAVISHRSGETEDATIADLAVGTAAGQIKTGSMSRSDRVAKYNQLIRIEEALGEKAPYNGRKEIKGQA
notes: enolase (EC 4.2.1.11), E. coli; overexpressed from pET11a; Purified as described in Kuhnel & Luisi, 2001; Homodimer in the crystal and by nondissociating mass spectrometry; also called enolase dimer; dimeric enolase; source: E. coli BL21 (DE3), pET11a vector, purified
As a reminder, the stoichiometry N is a count of units in the complex or per binding partner. Turning to B1, the “stoichiometry N” value is 2.
